Source: patent US20110070243A1 (published 2011)

T1: rhesus CD79b (rhesus monkey, UniProt H9ZFT8 30-231)
T1 construct: whole, on cells; also called rhesus monkey CD79b
T1 sequence: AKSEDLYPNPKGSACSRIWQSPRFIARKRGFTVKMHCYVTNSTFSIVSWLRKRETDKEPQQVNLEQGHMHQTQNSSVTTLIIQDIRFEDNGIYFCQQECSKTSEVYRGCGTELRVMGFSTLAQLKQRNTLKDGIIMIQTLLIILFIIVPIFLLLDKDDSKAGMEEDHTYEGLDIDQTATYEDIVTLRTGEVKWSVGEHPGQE

T2: cyno CD79b (TAHO40) (cynomolgus monkey)
T2 construct: Target on BJAB-cyno CD79b cells (BJAB transfected with cyno CD79b) and on cynomolgus B cells; also called cynomolgus CD79b; PRO283627
T2 chain: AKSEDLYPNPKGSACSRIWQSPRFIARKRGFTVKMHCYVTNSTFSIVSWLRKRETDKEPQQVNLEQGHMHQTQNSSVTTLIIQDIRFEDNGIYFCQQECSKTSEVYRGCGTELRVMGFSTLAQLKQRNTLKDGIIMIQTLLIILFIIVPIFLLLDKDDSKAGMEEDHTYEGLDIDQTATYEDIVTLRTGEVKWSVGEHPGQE

T3: human CD79b (TAHO5) (human, UniProt P40259 29-229)
T3 construct: also called PRO36249; Igbeta
T3 sequence: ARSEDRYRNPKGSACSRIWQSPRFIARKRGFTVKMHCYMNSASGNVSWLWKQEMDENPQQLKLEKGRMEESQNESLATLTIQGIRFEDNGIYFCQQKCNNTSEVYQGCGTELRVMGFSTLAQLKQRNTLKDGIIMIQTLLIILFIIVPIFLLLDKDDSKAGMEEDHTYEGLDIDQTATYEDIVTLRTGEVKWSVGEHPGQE

T4: cyno CD79b (TAHO40) 21mer peptide (cynomolgus monkey)
T4 construct: also called cyno CD79b (TAHO40) 20 mer peptides
T4 peptide: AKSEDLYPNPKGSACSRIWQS

T5: human CD79b (TAHO5) 21mer peptide (human)
T5 peptide: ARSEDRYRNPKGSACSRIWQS


Assays:
[1] = target: T1, rhesus CD79b; assay: staining of rhesus monkey B cells; method not detailed
[2] = target: T2, cyno CD79b (TAHO40); assay: staining of cynomolgus monkey B cells; method not detailed
[3] = target: T3, human CD79b (TAHO5); assay: Scatchard analysis on BJAB-cyno CD79b cells (which also express human CD79b)
[4] = target: T4, cyno CD79b (TAHO40) 21mer peptide; assay: peptide competition: antibody pre-incubated with the cyno peptide, then FACS staining of BJAB cells
[5] = target: T2, cyno CD79b (TAHO40); assay: Scatchard analysis on BJAB-cyno CD79b cells
[6] = target: T5, human CD79b (TAHO5) 21mer peptide; assay: peptide competition: antibody pre-incubated with the human 21mer peptide, then FACS staining of cells

Binder | binding result [1] | binding result [2] | Kd [3] | binding result [4] | Kd [5] | binding result [6]
anti-human CD79b (TAHO5) antibody SN8 (antibody, V domains shown, Murine monoclonal antibody, commercial (Biomeda, BD, Ancell) or from the Roswell Park hybridoma; also called anti-human CD79b (SN8)) VL: DIVLTQSPASLAVSLGQRATISCKASQSVDYDGDSFLNWYQQKPGQPPKLFIYAASNLESGIPARFSGSGSGTDFTLNIHPVEEEDAATYYCQQSNEDPLTFGAGTELELKR VH: EVQLQQSGAELMKPGASVKISCKATGYTFSSYWIEWVKQRPGHGLEWIGEILPGGGDTNYNEIFKGKATFTADTSSNTAYMQLSSLTSEDSAVYYCTRRVPVYFDYWGQGTSVTVSS | no binding | no binding | 0.5 nM | no binding (tested: antibody:peptide 1:10) |  | 
anti-cyno-CD79b-10D10 (antibody, V domains shown, Murine hybridoma monoclonal antibody; also called 10D10.3; ATCC PTA-7715) VH: EVQLQESGPGLVKPSQSLSLTCTVTGYSITSDYAWNWIRQFPGNKLEWMGNIWYSGSTTYNPSLKSRISITRDTSKNQFFLQLNSVTSEDTATYYCSRMDFWGQGTTLTVSS VL: DIVLTQSPPSLAVSLGQRATISCRASESVDSYGKTFMHWHQQKPGQPPKLLIYRVSNLESGIPARFSGSGSRTDFTLTINPVEADDVATYYCQQSNEDPFTFGGGTKLEIKR |  |  |  |  | 1 nM | no binding (tested: antibody:peptide 1:10)
anti-human-CD79b-2F2 (antibody, V domains shown, Murine hybridoma monoclonal antibody; also called 2F2.20.1; anti-human CD79b (TAHO5) (2F2)) VH: QVQLQQPGAELVRPGASVKLSCKASGYTFTSYWMNWVKQRPGQGLEWIGMIDPSDSETHYNHIFKDKATLTVDKSSSTAYLQLSSLTSEDSAVYYCARNLYLWGQGTSVTVSL VL: not shown | no binding | no binding |  | no binding (tested: antibody:peptide 1:10) |  | 
